The test has as its target GST-TMEM106B (truncated, comprising amino acids 122-210 of SEQ ID NO:1) (Homo sapiens, UniProt Q9NUM4). As to the kind of experiment: Pre-mix epitope binning of anti-TMEM106B antibodies (Carterra / Lake Pharma). The format is binding. More on the design: key to epitope bin: Bin 1: competes for binding to the same or overlapping TMEM106B region as the TM1, TM17, TM22, TM26, TM79, and/or TM82 antibodies; Bin 2: competes for binding to the same or overlapping TMEM106B region as the TM3, TM9, TM10, TM11, TM12, TM13, TM18, TM19, TM21, TM24, TM25, TM32, TM35, TM37, TM42, TM45, TM48, TM54, TM59, TM60, TM61, and/or TM76 antibodies; Bin 3: competes for binding to the same or overlapping TMEM106B region as the TM7, TM15, TM83, and/or TM84 antibodies; Bin 4: competes for binding to the same or overlapping TMEM106B region as the TMS, TM28, TM29, TM30, TM63, TM64, TM72, TM78, TM80, TM86, and/or TM88 antibodies; Bin 5: does not bind to a truncated TMEM106B comprising amino acids 122-210 of SEQ ID NO:1. Particulars: for epitope bin: competition for binding to truncated GST-TMEM106B (amino acids 122-210); for Binding Community/Bin: epitope bin number, pre-mix binning on truncated GST-TMEM106B. The procedure: (§1) Monoclonal anti-TMEM106B antibodies were immobilized to a CMD 50M chip (Xantec # SPMXCMD5OM lot# SCCMD50M0416). The running buffer was HBS-EP+ with 1 mg/mL BSA. The GST-TMEM106B (truncated, comprising amino acids 122-210 of SEQ ID NO:1) antigen was prepared at a final concentration of 55 nM (corresponding to 2 μg/mL) and mixed with the competing analyte anti-TMEM106B antibodies at a final concentration of 333 nM (corresponding to 50 μg/mL) or compared to a buffer control. Samples were injected for 5 minutes over the array and regenerated after every cycle with 1 minute of two parts Pierce IgG-Elution buffer (ThermoFisher Cat#21004) and 1 part of 10 mM Glycine, pH 2.0 (Carterra).
Anti-TMEM106B antibodies sorted into various competing bins and resulting binning profiles. […] Antibodies within Bin 3 or Bin 4 partially block Bin 2 antibodies.
as §1, with “SPMXCMD50M” for “SPMXCMD5OM”, “lmg/ml” for “1 mg/mL”, “(truncated)” for “(truncated, comprising amino acids 122-210 of SEQ ID NO:1)”, “μg/ml)” for “μg/mL)”

Chain of GST-TMEM106B (truncated, comprising amino acids 122-210 of SEQ ID NO:1) (Q9NUM4 122-210): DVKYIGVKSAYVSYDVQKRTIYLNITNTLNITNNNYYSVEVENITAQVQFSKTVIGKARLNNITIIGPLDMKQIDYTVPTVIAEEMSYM

B1: TM-17: anti-TMEM106B monoclonal antibody; CDR-H1-3 SEQ ID NO: 17, 51, 94; CDR-L1-3 SEQ ID NO: 132, 172, 196 (antibody, V domains shown)
VH: QVQLQQSGAELIRPGTSVKVSCKASGYAFTDYLIEWVKQRPGQGLEWIGVINPGSGGTNYNEKFKGKAKLTADKSSSTAYMQLSSLTSEDSAVYFCVRSSYGVYVAYPMDYWGQGTSVTVSS
VL: DIQMTQSPSSLSASLGERVSLTCRASQDIGSNLNWLQQEPDGTIKRLIYATSSLDSGVPKRFSGSRSGSDYSLTISSLESEDFVDYYCLQYASSPRTFGGGTKLEIK
B1: the epitope bin result is listed as “Bin 1” and the “Binding Community/Bin” value was 1.

B2: TM-79: anti-TMEM106B monoclonal antibody; VH SEQ ID NO: 484, VL SEQ ID NO: 519 (antibody, V domains shown)
VH: EVQLQQSGPELVKPGASVKMSCKASGYTFTNYVMHWLKQKPGQGLEWIAHITPHNDGTKYNEKFKGKATLTSDRSSSTAYMELNSLTSEDSAIYYCARSGQFGRGDYFHYWGQGTTVTVSS
VL: DIVLTQSPASLAVSLGQRATISCRASKSVSTSGSIYIHWYQQKPGQPPKLLIYLTSNLESGVPARFSGSGSGTDFTLNIHPVEEEDAATYYCQHSGELPWTFGGGARLEIK
modifications: Variable Heavy Chain -- TM-79; Variable Light Chain -- TM-79
Regarding B2, the epitope bin entry is “Bin 1” and the “Binding Community/Bin” value is listed as 1.

B3: TM-26: anti-TMEM106B monoclonal antibody; CDR-H1-3 SEQ ID NO: 2, 56, 99; CDR-L1-3 SEQ ID NO: 139, 176, 203 (antibody, V domains shown)
VH: QVQLQQSGAELIRPGTSVKVSCKASGYAFTNYLIEWVKKRPGQGLEWIGVINPGSGITNYNEKFKGKATLTADKSSSTAYMQLSSLTSEDSAVYFCARSDFITTVVADYWGQGTTVTVSS
VL: DIVVTQTPLSLPVSFGDQVSISCRSSQSLTNYYGNTYLSWYLHKPGQSPQLLIYGISNRFSGVPDRFSGSGSGTDFTLKISTIKPEDLGMYYCLQGTHQPRTFGGGTKLEIK
As to B3, the epitope bin entry is recorded as “Bin 1” and the “Binding Community/Bin” value stood at 1.

B4: TM-82: anti-TMEM106B monoclonal antibody; VH SEQ ID NO: 487, VL SEQ ID NO: 522 (antibody, V domains shown)
VH: QVQLQQSGAELVRPGTSVRVSCKASGYAFTNYLIEWIKQRPGQGLEWIGVINPGSGITDYSEKFKGKARLTADKSSSTAYMQLSSLTSDDSAVYFCTRSPFITTVVADYWGQGTTVTVSS
VL: DVVVTQTPLSLPVSFGDQVSISCRSSQSLANTYGNTYLSWYLHTPGQSPQLLIFGISNRFSGVPDRFSGSGSGTDFTLKISTIKPEDLGVYYCLQGTHPPRTFGGGTKLEMK
modifications: Variable Heavy Chain -- TM-82; Variable Light Chain -- TM-82
For B4, the epitope bin result is recorded as “Bin 1” and the “Binding Community/Bin” value came to 1.

B5: TM-1: anti-TMEM106B monoclonal antibody; CDR-H1-3 SEQ ID NO: 2, 35, 78; CDR-L1-3 SEQ ID NO: 120, 160, 184 (antibody, V domains shown)
VH: QVQLQQSGAELVRPGTSVKVSCKASGYAFTNYLIEWVKQRPGQGLEWIGVINPGSGGTKYNEKLKGKATLTADKSSSTAYMQLSSLTSVDSAVYFCARRGYTIYDFYAMDYWGQGTSVTVSS
VL: DVLMTQTPLSLPVSLGDHASISCRSSQSIVYNNGNTYLEWYLQKPGQSPKLLIYKVSNRFSGVPDRFSGSGSGTDFTLKISRVEAEDLGVYYCFQVSHVPFTFGSGTKLEIK
Regarding B5, the epitope bin entry was “Bin 1” and the “Binding Community/Bin” value came out at 1.

Source of the values: patent US20240166738A1 (priority 2021, published 2024).
